Values belong to the binder of their own block, whether it stands above or below them.
Molecular target: T1, human PAD2 protein (human, UniProt Q9Y2J8 1-665)
T1 construct: also called Peptidylarginine deiminase 2; Peptidyl arginine deiminase type-2
Assay: SPR (Biacore 8K), antibody captured on Protein A chip, human PAD2 as analyte, single-cycle, 1:1 model
Experimental: To evaluate the binding affinity of each anti-PAD2 antibody for human PAD2 protein, the dissociation constant (KD) was measured using a surface plasmon resonance system Biacore 8K (Cytiva). Series S Sensor Chip Protein A (Cytiva) was used as the sensor chip. HBS-EP+ buffer was used as the running buffer. The test antibody was prepared at 0.8 μg/mL by using the running buffer to make a ligand solution. The ligand solution was added to the flow cell at a flow rate of 10 μL/min for 60 seconds, and the flow cell without the ligand solution was used as a reference cell. The running buffer was used to prepare human PAD2 protein from several hundred pM to several tens of nM to make each analyte solution. The running buffer was also used as a blank solution. The blank solution or analyte solution was added at a flow rate of 30 μL/min for 120 seconds by using the single-cycle method, and the dissociation time was set to 1200 seconds. The sensorgram of the reference cell was subtracted from the sensorgram of the flow cell with the ligand when the blank solution or analyte solution was added. In addition, the sensorgram when the blank solution was added was subtracted from the sensorgram when the analyte solution was added, and then used for analysis. Biacore™ Insight Evaluation Software (Cytiva) was used to calculate binding parameters while using the 1:1 binding model.

T1 sequence (Q9Y2J8 whole entry): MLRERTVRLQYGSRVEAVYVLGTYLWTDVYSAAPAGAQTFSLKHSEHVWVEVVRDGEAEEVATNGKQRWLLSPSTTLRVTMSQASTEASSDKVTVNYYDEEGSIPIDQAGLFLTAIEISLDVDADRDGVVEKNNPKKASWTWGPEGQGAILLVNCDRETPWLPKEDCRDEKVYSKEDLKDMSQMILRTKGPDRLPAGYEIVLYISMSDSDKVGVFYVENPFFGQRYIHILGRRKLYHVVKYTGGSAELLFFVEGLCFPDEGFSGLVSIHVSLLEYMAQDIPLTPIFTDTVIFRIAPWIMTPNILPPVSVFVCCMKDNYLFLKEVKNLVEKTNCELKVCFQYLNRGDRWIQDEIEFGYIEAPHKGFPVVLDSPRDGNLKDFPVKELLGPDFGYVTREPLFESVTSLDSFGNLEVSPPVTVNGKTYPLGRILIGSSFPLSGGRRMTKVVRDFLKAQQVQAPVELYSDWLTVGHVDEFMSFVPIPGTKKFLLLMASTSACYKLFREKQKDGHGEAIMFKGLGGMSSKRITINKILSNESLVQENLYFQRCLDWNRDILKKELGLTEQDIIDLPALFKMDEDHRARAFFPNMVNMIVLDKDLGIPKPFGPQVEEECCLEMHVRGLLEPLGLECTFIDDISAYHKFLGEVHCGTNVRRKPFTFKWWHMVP

- binding result: binds
B1: CK1-10 (antibody, human IgG1, lambda, V domains shown)
VH: AVTLDESGGGLQTPGRALSLVCKASGFTFSDYGMGWMRQAPGKGLEWVGAISNRGSHTYYGAAVKGRATISRDNGQSTVRLQLNNLRAEDTGTYYCAKDAGTCISSYGFSCVSAASIDAWGHGTEVIVSS
VL: ALTQPSSVSANLGGTVKITCSGGSGSYGGSYYYGWYQQKAPGSAPVTLIYDNTNRPSNIPSRFSGSKSGSTATLTITGVQADDEAVYFCGSIDSISDADIFGAGTTLTVLG
notes: Chicken/human chimeric IgG1 expressed in 293 cells; also called anti-PAD2 antibody

- binding result: binds
B2: PK1-16 (antibody, human IgG1, lambda, V domains shown)
VH: AVTLDESGGGLQTPGGGLSLVCKASGFTFRSYAMYWVRQAPGKGLEWLAGISSSGRYTGYAPAVKGRATISRDNGQSTVRLQLSNLRAEDAGTYYCAKDVYDSWTYANRIDAWGHGTEVIVSS
VL: ALTQPSSVSANPGETVKITCSGGGRRGYYGWYQQKSPGSAPVTVIYNNDERPSNIPSRFSGFKSGSTATLTITGVQAEDEAVYYCGSGDTTTDSGIFGAGTTLTVLG
notes: as for B1

— US20250236683A1 (PHARMA FOODS INTERNATIONAL, published 2025)
